Experimental data reported in paper PMC6162332, “A unique intracellular tyrosine in neuroligin-1 regulates AMPA receptor recruitment during synapse differentiation and potentiation” (Nature Communications, 2018).
Substitutions are numbered along the chain they refer to. Names may count otherwise.

B1: GST-Nlg1-WT (GST fused to the intracellular domain of neuroligin-1) (domain or fragment, mouse, UniProt Q99K10 719-843, looked up)
chain: YKKDKRRHDVHRRCSPQRTTTNDLTHAPEEEIMSLQMKHTDLDHECESIHPHEVVLRTACPPDYTLAMRRSPDDIPLMTPNTITMIPNTIPGIQPLHTFNTFTGGQNNTLPHPHPHPHSHSTTRV
notes: neuroligin-1 (Nlg1), mouse, cytoplasmic tail amplified from HA-Nlg1 (with splice inserts A and B) and inserted in pGex-4T1 at XhoI/NotI; source: E. coli BL21 (DE3)-RIPL, purified (Glutathione Sepharose 4 Fast Flow, dialysed against PBS)
B2: GST-Nlg1-Y782F (domain or fragment, mouse, UniProt Q99K10 719-843, looked up)
chain: B1 chain with Y64F
notes: neuroligin-1 (Nlg1), mouse, cytoplasmic tail amplified from HA-Nlg1-Y782F and inserted in pGex-4T1 at XhoI/NotI; Same limits as m1 (same primers); source: E. coli BL21 (DE3)-RIPL, purified (Glutathione Sepharose 4 Fast Flow, dialysed against PBS)
B3: GST-Nlg1-Y782A (domain or fragment, mouse, UniProt Q99K10 719-843, looked up)
chain: B1 chain with Y64A
notes: neuroligin-1 (Nlg1), mouse, cytoplasmic tail amplified from HA-Nlg1-Y782A and inserted in pGex-4T1 at XhoI/NotI; Same limits as m1 (same primers); source: E. coli BL21 (DE3)-RIPL, purified (Glutathione Sepharose 4 Fast Flow, dialysed against PBS)

molecular target: T1, PSD-95-mCherry (rat, UniProt P31016 1-724); assay: pull-down; GST or GST-Nlg1 proteins (0.64 nmol/200 µl) on glutathione magnetic beads in PBS pH 7.4, 0.01% BSA, 0.01% Tween-20; incubated 20 min at RT with purified PSD-95-mCherry (0.01 nmol/100 µL); eluted with glutathione; anti-PSD-95 immunoblot; settings: both partners purified
T1 construct: PSD-95, rat; the rat PSD-95 gene subcloned in frame with an N-terminal mCherry into pET-24a(+) between EcoRI and XhoI; the methods give no limits; source: E. coli BL21-CodonPlus (DE3)-RIPL, purified (Ni-NTA, dialysed into PBS with 0.01% Tween-20); not shown: mCherry, N-terminal, kept
T1 sequence (P31016 whole entry): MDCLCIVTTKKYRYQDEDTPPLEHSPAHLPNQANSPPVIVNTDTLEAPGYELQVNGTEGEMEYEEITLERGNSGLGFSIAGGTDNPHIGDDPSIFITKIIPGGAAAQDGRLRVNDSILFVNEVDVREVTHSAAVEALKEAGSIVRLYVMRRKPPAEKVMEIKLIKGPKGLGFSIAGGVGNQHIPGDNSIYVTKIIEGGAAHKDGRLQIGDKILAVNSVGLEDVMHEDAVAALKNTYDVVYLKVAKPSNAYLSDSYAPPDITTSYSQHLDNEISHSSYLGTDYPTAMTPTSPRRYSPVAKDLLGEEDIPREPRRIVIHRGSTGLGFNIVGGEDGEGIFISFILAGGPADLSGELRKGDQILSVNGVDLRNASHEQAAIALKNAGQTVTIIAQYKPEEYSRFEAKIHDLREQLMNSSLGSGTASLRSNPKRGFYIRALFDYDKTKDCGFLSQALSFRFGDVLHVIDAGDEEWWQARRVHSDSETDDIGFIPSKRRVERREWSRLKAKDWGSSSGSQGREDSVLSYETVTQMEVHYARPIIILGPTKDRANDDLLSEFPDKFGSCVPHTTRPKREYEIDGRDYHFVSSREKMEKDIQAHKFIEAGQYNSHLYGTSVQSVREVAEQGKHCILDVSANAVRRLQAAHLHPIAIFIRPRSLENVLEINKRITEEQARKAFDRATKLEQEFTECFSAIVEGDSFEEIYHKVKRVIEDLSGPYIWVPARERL

Binding result, binds:
B1
B2
B3
